Experimental data as given in patent publication US20240043542A1 (published 2024).
Like-named read-outs stand apart in the source and are kept apart here.

T1: human B7-H4 on the cell surface (human, UniProt Q7Z7D3 25-282)
T1 sequence: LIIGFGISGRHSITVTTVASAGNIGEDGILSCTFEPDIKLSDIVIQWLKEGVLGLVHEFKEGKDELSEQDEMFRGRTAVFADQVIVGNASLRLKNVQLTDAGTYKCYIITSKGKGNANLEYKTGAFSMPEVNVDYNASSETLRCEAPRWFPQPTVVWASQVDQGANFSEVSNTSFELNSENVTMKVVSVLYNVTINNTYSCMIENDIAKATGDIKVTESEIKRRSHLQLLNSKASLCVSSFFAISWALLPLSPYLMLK

T2: cynomolgus monkey B7-H4 (recombinant, BLI) (cynomolgus monkey, UniProt Q7Z7D3 25-259 (human entry))
T2 construct: also called Cynomolgus B7-H4
T2 sequence: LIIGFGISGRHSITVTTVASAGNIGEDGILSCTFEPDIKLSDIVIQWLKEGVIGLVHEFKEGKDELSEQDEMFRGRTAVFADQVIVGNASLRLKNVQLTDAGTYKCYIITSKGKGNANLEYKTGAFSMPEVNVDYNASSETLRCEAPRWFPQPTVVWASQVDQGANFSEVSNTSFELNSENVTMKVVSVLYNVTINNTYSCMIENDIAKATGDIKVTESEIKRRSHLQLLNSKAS

T3: mouse B7-H4 (recombinant, BLI) (mouse, UniProt Q7TSP5 29-256, limits assumed)
T3 construct: also called murine B7-H4
T3 sequence: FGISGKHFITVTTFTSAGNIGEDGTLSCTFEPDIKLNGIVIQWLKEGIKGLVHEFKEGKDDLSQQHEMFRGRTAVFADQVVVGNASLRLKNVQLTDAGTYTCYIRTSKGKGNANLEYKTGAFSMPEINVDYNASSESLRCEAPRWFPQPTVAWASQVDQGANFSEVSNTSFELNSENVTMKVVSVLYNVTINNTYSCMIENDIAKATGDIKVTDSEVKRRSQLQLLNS

T4: mouse B7-H4 on the cell surface (mouse, UniProt Q7TSP5 25-257)
T4 construct: full-length, on transfected HEK293T cells
T4 sequence: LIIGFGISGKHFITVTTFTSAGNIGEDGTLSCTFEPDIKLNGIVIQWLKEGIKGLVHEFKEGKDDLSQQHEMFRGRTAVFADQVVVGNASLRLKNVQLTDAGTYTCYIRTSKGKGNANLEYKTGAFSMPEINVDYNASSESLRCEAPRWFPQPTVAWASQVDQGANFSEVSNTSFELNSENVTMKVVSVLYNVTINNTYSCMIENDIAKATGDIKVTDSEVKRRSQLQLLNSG

T5: cynomolgus monkey B7-H4 on the cell surface (cynomolgus monkey, UniProt Q7Z7D3 25-282 (human entry))
T5 construct: full-length, on transfected HEK293T cells
T5 chain: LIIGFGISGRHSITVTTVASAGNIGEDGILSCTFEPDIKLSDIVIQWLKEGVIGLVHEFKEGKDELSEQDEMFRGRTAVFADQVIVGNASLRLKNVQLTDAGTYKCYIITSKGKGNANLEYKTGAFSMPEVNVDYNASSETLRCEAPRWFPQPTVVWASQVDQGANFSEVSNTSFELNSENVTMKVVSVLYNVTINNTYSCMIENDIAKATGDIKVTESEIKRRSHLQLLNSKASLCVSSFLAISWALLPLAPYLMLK

T6: rat B7-H4 on the cell surface (rat, UniProt Q501W4 25-257)
T6 construct: full-length, on transfected HEK293T cells
T6 sequence: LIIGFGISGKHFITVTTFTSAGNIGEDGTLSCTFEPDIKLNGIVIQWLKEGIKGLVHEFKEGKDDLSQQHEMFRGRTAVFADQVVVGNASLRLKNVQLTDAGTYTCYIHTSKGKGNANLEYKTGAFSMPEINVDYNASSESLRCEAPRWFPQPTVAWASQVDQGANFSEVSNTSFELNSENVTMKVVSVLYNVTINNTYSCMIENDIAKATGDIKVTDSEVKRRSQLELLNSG


How the values were obtained:
[1] = biological target: T1, human B7-H4 on the cell surface; experiment: cell-based or functional assay
[2] = biological target: T1, human B7-H4 on the cell surface; experiment: flow cytometry, SK-BR-3 cells
Description: (§1) Following incubation, cells were pelleted, washed and incubated with a secondary labeling antibody and samples were acquired on a flow cytometer. Data was analyzed using the FlowJo software and MFI was plotted vs. antibody concentration. The EC50 cell binding potency was calculated using nonlinear regression curve fit (GraphPad Prism).

[3] = biological target: T2, cynomolgus monkey B7-H4 (recombinant, …); experiment: BLI, antigen on Protein A tips;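 note: Anti-B7-H4 antibodies assessed for affinity toward the B7-H4 extracellular domain using biolayer interferometry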
Description: (§2) Binding affinities of anti-B7-H4 antibodies to B7-H4-extracellular domain (ECD) were determined by biolayer interferometry (BLI). […] Anti-B7-H4 antibodies were then evaluated for binding.

[4] = biological target: T3, mouse B7-H4 (recombinant, BLI); experiment: BLI, antigen on Protein A tips;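 note: Anti-B7-H4 antibodies assessed for affinity toward the B7-H4 extracellular domain using biolayer interferometry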
Description: as §2

[5] = biological target: T4, mouse B7-H4 on the cell surface; experiment: flow cytometry, transfected 293 cells
Description: as §1

[6] = biological target: T7, B7-H4 IgV-huIgG1 (human); experiment: SPR, antibody captured by anti-human Fab, antigen in flow
T7 construct: also called N-terminal domain of human B7-H4
Description: Briefly, anti-human Fab antibody was immobilized on a carboxyl-derivatized SPR chip surface, and anti-B7-H4 antibodies were captured on the resulting surface at 5 ug/ml for 30 seconds.

[7] = biological target: T1, human B7-H4 on the cell surface; experiment: cell-based or functional assay; remark: listed apart in the source
[8] = biological target: T8, recombinant human B7-H4-huIgG1 (human); experiment: BLI, antigen on Protein A tips;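 note: Anti-B7-H4 antibodies assessed for affinity toward the B7-H4 extracellular domain using biolayer interferometry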
T8 construct: also called B7-H4-extracellular domain (ECD)
Description: as §2

[9] = biological target: T5, cynomolgus monkey B7-H4 on the cell …; experiment: flow cytometry, transfected 293 cells
Description: as §1

[10] = biological target: T1, human B7-H4 on the cell surface; experiment: flow cytometry, 100 nM, transfected HEK293T
Description: (§3) HEK293T cell lines were transfected to express full-length human, cynomolgus monkey, mouse, or rat B7-H4. In addition, the endogenous human B7-H4 expressing SK-BR-3 breast cancer cell line was used to assess the ability of the antibodies to bind B7-H4 expressed on the cell surface. 1×10⁵ parental HEK293T or transfected HEK293T cell lines were incubated with 100 nM of the B7-H4 antibodies. Following incubation, cells were pelleted, washed, and incubated with a secondary labeling antibody, and samples were acquired on a flow cytometer. Fold binding over the parental cell line (FOP) was calculated as follows: MFI transfected HKE293T cells/MFI parental HEK293T cells.

[11] = biological target: T5, cynomolgus monkey B7-H4 on the cell …; experiment: flow cytometry, 100 nM, transfected HEK293T
Description: as §3

[12] = biological target: T4, mouse B7-H4 on the cell surface; experiment: flow cytometry, 100 nM, transfected HEK293T
Description: as §3

[13] = biological target: T6, rat B7-H4 on the cell surface; experiment: flow cytometry, transfected 293 cells
Description: as §1

Row | Binder | EC50 [2] [nM] | Kd [3] [nM] | Kd [4] [nM] | EC50 [5] [nM] | Kd [6] [nM] | Kd [8] [nM] | koff [8] [s⁻¹] | kon [8] [M⁻¹ s⁻¹] | koff [3] [s⁻¹] | kon [3] [M⁻¹ s⁻¹] | koff [4] [s⁻¹] | kon [4] [M⁻¹ s⁻¹] | FOP (fold binding over the parental cell line) [10] [fold] | FOP (fold binding over the parental cell line) [11] [fold] | FOP (fold binding over the parental cell line) [12] [fold] | further results
1 | B7-H4 antibody 15483 (antibody, human IgG1, kappa, V domains shown, human IgG1/kappa) VH: QVQLQESGPGLVKPSQTLSLTCTVSGGSISSGGYYWSWIRQHPGKGLEWIGNIYYSGSTYYNPSLKSRVTISVDTSKNQFSLKLSSVTAADTAVYYCARGLSTIDEAFDPWGQGTLVTVSS VL: not shown | 14.8 | 108 | 263 | 8.82 | 18.4 | – | – | – | – | – | – | – | – | – | – | Donor 1 Max IFNγ [1]: 93.2 pg/mL; Donor 2 Max IFNγ [1]: 87.8 pg/mL; Donor 3 Max IFNγ [1]: 1380 pg/mL; Donor 4 Max IFNγ [1]: 939 pg/mL; aAPC Assay EC50 (IFNγ production) [1]: 729 nM
2 | B7-H4 antibody 20500 (antibody, human IgG1, kappa, V domains shown, human IgG1/kappa) VH: QLQLQESGPGLVKPSETLSLTCTVSGGSIKSGSHYWGWIRQPPGKGLEWIGNIYYSGSTYYNPSLRSRVTISVDTSKNQFSLKLSSVTAADTAVYYCAREGSYPNWFDPWGQGTLVTVSS VL: EIVMTQSPATLSVSPGERATLSCRASQSVSSNLAWYQQKPGQAPRLLIYGASTRATGIPARFSGSGSGTEFTLTISSLQSEDFAVYYCQQYHSFPFTFGGGTKVEIKR | 1.54 | 5.47 | 8.25 | 4 | – | 5.97 | 0.00233 | 391000 | 0.00229 | 418000 | 0.00336 | 408000 | 182 | 630 | 478 | Donor 1 Max IFNγ [7]: 821 pg/mL; Donor 2 Max IFNγ [7]: 274 pg/mL; Donor 3 Max IFNγ [7]: 118 pg/mL; Donor 4 Max IFNγ [7]: 4030 pg/mL; aAPC Assay EC50 (IFNγ production) [7]: 0.84 nM; EC50 [9]: 3.38 nM; EC50 [13]: 1.14 nM
3 | B7-H4 antibody 15489 (antibody, human IgG1, kappa, V domains shown, human IgG1/kappa) VH: QVQLQESGPGLVKPSETLSLTCTVSGGSISSYYWSWIRQPPGKGLEWIGYIYSSGSTNYNPSLKSRVTISVDTSKNQFSLKLSSVTAADTAVYYCARGSGQYAAPDYGMDVWGQGTTVTVSS VL: DIQMTQSPSTLSASVGDRVTITCRASQSISSWLAWYQQKPGKAPKLLIYKASSLESGVPSRFSGSGSGTEFTLTISSLQPDDFATYYCQQDNSFPFTFGGGTKVEIKR | 31.7 | 72.1 | 201 | 17.5 | 23.7 | 63.7 | – | – | – | – | – | – | – | – | – | Donor 1 Max IFNγ [1]: 82.5 pg/mL; Donor 2 Max IFNγ [1]: 96.6 pg/mL; Donor 3 Max IFNγ [1]: 1130 pg/mL; Donor 4 Max IFNγ [1]: 800 pg/mL; aAPC Assay EC50 (IFNγ production) [1]: 291 nM
4 | B7-H4 antibody 15472 (antibody, human IgG1, kappa, V domains shown, human IgG1/kappa) VH: EVQLLESGGGLVQPGGSLRLSCAASGFTFSSYAMSWVRQAPGKGLEWVSTISGSGGSTYYADSVKGRFTISRDNSKNTLYLQMNSLRAEDTAVYYCARGAGHYDLVGRYWGQGTLVTVSS VL: not shown | 8.86 | 7.8 | 38 | – | – | 7.11 | 0.00497 | 700000 | 0.00582 | 746000 | 0.016 | 422000 | 580 | 1280 | 685 | –

Continued, in another order:

Row | EC50 [2] [nM] | Kd [3] [nM] | Kd [4] [nM] | EC50 [5] [nM] | Kd [6] [nM] | Kd [8] [nM] | koff [8] [s⁻¹] | kon [8] [M⁻¹ s⁻¹] | koff [3] [s⁻¹] | kon [3] [M⁻¹ s⁻¹] | koff [4] [s⁻¹] | kon [4] [M⁻¹ s⁻¹] | FOP (fold binding over the parental cell line) [10] [fold] | FOP (fold binding over the parental cell line) [11] [fold] | FOP (fold binding over the parental cell line) [12] [fold] | Binder | further results
5 | 7.6 | 0.721 | 24.6 | 6.7 | – | 0.805 | 0.000555 | 689000 | 0.000569 | 790000 | 0.0171 | 692000 | 179 | 758 | 604 | B7-H4 antibody 20496 (antibody, human IgG1, kappa, V domains shown, human IgG1/kappa) VH: QLQLQESGPGLVKPSETLSLTCTVSGGSISSSVYYWSWIRQPPGKGLEWIGSILVSGSTYYNPSLKSRVTISVDTSKNQFSLKLSSVTAADTAVYYCARAVSFLDVWGQGTMVIVSS VL: DIQMTQSPSSLSASVGDRVTITCRASQSISSYLNWYQQKPGKAPKLLIYGASSLQSGVPSRFSGSGSGTDFTLTISSLQPEDFATYYCQQSYDPPWTFGGGTKVEIKR | Donor 1 Max IFNγ [7]: 186 pg/mL; EC50 [9]: 7.91 nM
6 | – | 1.2 | 3.4 | – | 2.03 | 1.2 | 0.00115 | 936000 | 0.00112 | 962000 | 0.00213 | 632000 | – | – | – | B7-H4 antibody 20502 (antibody, V domains shown, human IgG1/kappa) VH: QLQLQESGPGLVKPSETLSLTCTVSGGSIKSGSYYWGWIRQPPGKGLEWIGNIYYSGSTYYNPSLRSRVTISVDTSKNQFSLKLSSVTAADTAVYYCAREGSYPNQFDPWGQGTLVTVSS VL: EIVMTQSPATLSVSPGERATLSCRASQSVSSNLAWYQQKPGQAPRLLIYGASTRATGIPARFSGSGSGTEFTLTISSLQSEDFAVYYCQQYHSFPFTFGGGTKVEIKR | koff [6]: 0.000361 s⁻¹; kon [6]: 178000 M⁻¹ s⁻¹
7 | – | 17.6 | 41.4 | – | – | 18 | 0.00738 | 410000 | 0.00783 | 445000 | 0.0165 | 398000 | – | – | – | B7-H4 antibody 20516 (antibody, human IgG1, kappa, V domains shown, human IgG1/kappa) VH: QVQLQESGPGLVKPSETLSLTCTVSGGSIISYYWGWIRQPPGKGLEWIGYIYSSGSTSYNPSLKSRVTISVDTSKNQFSLKLSSVTAADTAVYYCARGSGLYAAPDYGLDVWGQGTTVTVSS VL: DIQMTQSPSTLSASVGDRVTITCRASQSISSWLAWYQQKPGKAPKLLIYKASSLESGVPSRFSGSGSGTEFTLTISSLQPDDFATYYCQQDNSFPFTFGGGTKVEIKR | Donor 2 Max IFNγ [7]: 441 pg/mL
